Patent US6721663B1, “Method for manipulating protein or DNA sequence data in order to generate complementary peptide ligands” (Proteom Limited, priority 1999, dated 2004)

Columns and labels:
[1] = target: T1, IL-1 (Homo sapiens, UniProt P01584); assay: Serum Amyloid IL-1 assay; type: cell-based; settings: FIG. 14
Excerpt: (§1) The program picked out antisense region LITVLNI (SEQ ID No. 8) in the IL-1R receptor.

[2] = target: T1, IL-1; assay: Direct binding to IL-1 by biosensing techniques
Excerpt: as §1

[3] = target: IL-1b (Homo sapiens, UniProt P01584); assay: ESAP assay of IL-1b biological activity; type: cell-based; settings: FIG. 14
Chain of IL-1b (P01584 117-269): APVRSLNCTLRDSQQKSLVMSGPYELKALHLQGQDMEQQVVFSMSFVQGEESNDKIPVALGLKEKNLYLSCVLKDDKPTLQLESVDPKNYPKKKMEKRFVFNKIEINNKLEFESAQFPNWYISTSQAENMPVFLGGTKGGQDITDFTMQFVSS
Excerpt: as §1

T1 sequence (P01584 117-269): as above

Substance | inhibition of IL-1 activity in Serum Amyloid IL-1 assay [1] | direct binding to IL-1 [2] | inhibition of the biological activity of IL-1b in ESAP assay [3]
LITVLNI (listed as Homo sapiens) [antisense region in the IL-1R receptor picked out by the ALS program] | The same effect is also seen | bind directly to IL-1 | inhibit the biological activity of IL-1b
LTILINV (Hypothetical sequence) [scrambled peptide control of LITVLNI, reference compound] | – | – | The effect is dependent on the peptide sequence
